The numbers were not newly measured in paper PMC9805914, which cites them from elsewhere.

The target in this data set is SARS-CoV-2 spike RGD motif RGD motif (Severe acute respiratory syndrome coronavirus 2) (UniProt P0DTC2).

As usually defined, the Kd is the concentration at which binding is half-saturated. integrin αvβ8 (from UniProt P06756): the Kd is 4 nM.
